PMC4933465 (The Journal of Biological Chemistry, 2016)
Numbering of substitutions follows the chain as printed. In names and notes the source's numbering stands.

B1: CCL7 (ligand)
chain: not shown
notes: chemokine CCL7; source: E. coli, purified
B2: CCL19 (ligand, UniProt Q99731 22-98, looked up)
chain: GTNDAEDCCLSVTQKPIPGYIVRNFHYLLIKDGCRVPAVVFTTLRGRQLCAPPDQPWVERIIQRLQRTSAKMKRRSS
notes: chemokine CCL19; source: E. coli, purified
B3: CCL27 (ligand, UniProt Q9Y4X3 25-112, looked up)
chain: FLLPPSTACCTQLYRKPLSDKLLRKVIQVELQEADGDCHLQAFVLHLAQRSICIHPQNPSLSQWFEHQERKLHGTLPKLNFGMLRKMG
notes: chemokine CCL27; source: E. coli, purified
B4: CCL27 K25A (ligand, UniProt Q9Y4X3 25-112, looked up)
chain: B3 chain with K25A
notes: chemokine CCL27 with K25A; also called CCL27 K25A mutant; source: E. coli, purified
B5: Link_TSG6_T (K55A/K69A/K76A) (domain or fragment, human)
chain: GVYHREARSGKYKLTYAEAAAVCEFEGGHLATYAQLEAARAIGFHVCAAGWMAKGRVGYPIVKPGPNCGFGKTGIIDYGIRLNRSERWDAYCYNPHAK
notes: Link module of human TSG-6 with three lysines changed to alanine; residues numbered as in the pre-protein
B6: CXCL11 (ligand, UniProt O14625 22-94, looked up)
chain: FPMFKRGRCLCIGPGVKAVKVADIEKASIMYPSNNCDKIEVIITLKENKGQRCLNPKSKQARLIIKKVERKNF
notes: chemokine CXCL11; CXCL11 is not in the methods' list of chemokines made in E. coli
B7: CCL5 (ligand, UniProt P13501 24-91, looked up)
chain: SPYSSDTTPCCFAYIARPLPRAHIKEYFYTSGKCSNPAVVFVTRKNRQVCANPEKKWVREYINSLEMS
notes: chemokine CCL5; source: E. coli, purified
B8: CCL21 (ligand, UniProt O00585 24-134, looked up)
chain: SDGGAQDCCLKYSQRKIPAKVVRSYRKQEPSLGCSIPAILFLPRKRSQAELCADPKELWVQQLMQHLDKTPSPQKPAQGCRKDRGASKTGKKGKGSKGCKRTERSQTPKGP
notes: chemokine CCL21; source: E. coli, purified
B9: Biotinylated CCL21 (ligand, UniProt O00585 24-134, looked up)
chain: B8 chain
modifications: biotin
notes: chemokine CCL21, biotinylated; also called biotinylated chemokine CCL21; source: E. coli, purified

Legend:
Conditions in all cases: both partners purified
[1] = target: T1, Link_TSG6 (recombinant Link module from human TSG-6) (human, UniProt P98066 36-133); assay: SPR; Link_TSG6 amine-coupled to a C1 chip (800–1000 RU), chemokine as analyte; BIAcore 3000; 10 mM HEPES, 150 mM NaCl, 0.05% Tween 20, pH 7.4; 40 μl/min; 1:1 Langmuir model; apparent affinities
T1 construct: Link module of human TSG-6 (TNF-stimulated gene/protein 6); residues numbered as in the pre-protein; also called TSG-6 Link module

[2] = target: B6; assay: ELISA; solid phase competition: chemokine (250 nM) coated on MaxiSorp plates, biotinylated heparin (25 ng/well) with Link_TSG6_T (0–1000 nM); 10 mM NaOAc, 150 mM NaCl, 2% Tween 20, pH 6.0, room temperature, 4 h; bound heparin detected
[3] = target: B1; assay: as above
[4] = target: T2, CCL2 (UniProt P13500 24-99); assay: as above
T2 construct: chemokine CCL2; source: E. coli, purified
T2 sequence (P13500 24-99): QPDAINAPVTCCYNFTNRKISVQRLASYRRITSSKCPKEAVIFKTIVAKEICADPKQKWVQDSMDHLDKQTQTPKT

[5] = target: B2; assay: as above
[6] = target: T1, Link_TSG6 (recombinant Link module from …); assay: SPR; Link_TSG6 amine-coupled to a C1 chip (800–1000 RU), chemokine as analyte; BIAcore 3000; 10 mM HEPES, 150 mM NaCl, 0.05% Tween 20, pH 7.4; 40 μl/min; 1:1 Langmuir model; apparent affinities; remark: listed apart in the source
[7] = target: T1, Link_TSG6 (recombinant Link module from …); assay: plate binding assay on a collagen-coated surface, labeled streptavidin detection; wells coated with type I collagen (100 μg/ml); biotinylated chemokine (10, 50 or 200 nM) alone or pre-incubated 30 min at 37 °C with different molar ratios of Link_TSG6 in cPBS, then 1 h on the surface; streptavidin IRDye 800CW

CCL7, sequence (P80098 24-99): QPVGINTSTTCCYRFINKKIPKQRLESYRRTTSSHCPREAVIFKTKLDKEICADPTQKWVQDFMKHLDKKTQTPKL

| Kd [1] [nM] | koff [1] [s⁻¹] | kon [1] [M⁻¹ s⁻¹] | Binder | other results |
| --- | --- | --- | --- | --- |
| 18.4 | 0.0016 | 87000 | B1 | – |
| 17.5 | 0.0028 | 160000 | B2 | – |
| 85.2 | 0.0023 | 27000 | B3 | – |
| 753 | 0.0061 | 8100 | B4 | – |
| – | – | – | B5 | IC50 [2]: 168 nM; IC50 [3]: 159 nM; IC50 [4]: 84 nM; IC50 [5]: 55 nM |
| 5.2 | 0.0013 | 250000 | B6 | – |
| – | – | – | B7 | binding result [6]: binds |
| 4.8 | 0.0034 | 710000 | B8 | – |
| – | – | – | B9 | binding result [7]: binds |
